Results as given in publication PMC4703965, “Inhibition of Canonical NF-κB Signaling by a Small Molecule Targeting NEMO-Ubiquitin Interaction” (Scientific Reports, 2016).

Experiments:
linear Ub2 [1] = target: T1, linear Ub2 (UniProt P0CG48 1-76; P0CG48 1-76); experiment: NMR titration; 1H,15N TROSY of 100 μM 15N-labeled NEMO_(UBAN) (258–350) without or with unlabeled linear Ub2 at 2:1 (NEMO_(UBAN):Ub2); conditions: both partners purified
T1 construct: ubiquitin, distal moiety of Met1-linked linear di-ubiquitin (two ubiquitins head to tail on one chain); ubiquitin, proximal moiety of Met1-linked linear di-ubiquitin; also called linUb2; methionine-1-linked linear di-ubiquitin; source: recombinant

[2] = target: the molecule itself; experiment: SEC-MALS; size exclusion chromatography (SEC) in combination with static light scattering (SLS); in solution
linear Ub2 [3] = target: T1, linear Ub2; experiment: MST + ITC; Microscale Thermophoresis and Isothermal Titration Calorimetry of NEMO_(UBAN) C347S with linUb2; conditions not shown; conditions: both partners purified
[4] = target: the molecule itself; experiment: SAXS; 293 K; 300 mM NaCl, 50 mM Tris-HCl pH 8.0; NEMO_(UBAN) C347S 2.8–9.9 mg/ml; NEMO_(UBAN) C347S and linear Ub2 mixed 2:1 (3.5–12.9 mg/ml) and 2:2 (4.9–12.1 mg/ml)

Row | binding result (linear Ub2 [1]) | Kd (linear Ub2 [3]) [nM] | Binder | stoichiometry N [2] | stoichiometry N [4]
1 | binds | – | NEMO_(UBAN) (258–350) (domain or fragment, UniProt Q9Y6K9 258-350, looked up, NEMO (IKKγ, NF-κB essential modulator), UBAN / CC2-LZ region, residues 258–350; 15N-labelled for the NMR experiment; The His6 tag was cleavable by 3C or TEV protease; also called NEMO_(258–350); NEMO_(UBAN) WT; source: cloned into pET vectors, recombinant, purified (details in the Supporting Information); not shown: His6, N-terminal, cleaved) MQLEDLKQQLQQAEEALVAKQEVIDKLKEEAEQHKIVMETVPVLKAQADIYKADFQAERQAREKLAEKKELLQEQLEQLQREYSKLKASCQES | 2 | –
2 | – | 1000 to 2000 | NEMO_(UBAN) C347S (258–350) (domain or fragment, UniProt Q9Y6K9 258-350, looked up, NEMO (IKKγ), UBAN / CC2-LZ region, residues 258–350 with C347S; Used for SAXS, for MST/ITC and unlabelled in the NMR experiments with 15N-linUb2; also called NEMO_(258–350) C347S; source: cloned into pET vectors, recombinant, purified (details in the Supporting Information); not shown: His6, N-terminal, cleaved) MQLEDLKQQLQQAEEALVAKQEVIDKLKEEAEQHKIVMETVPVLKAQADIYKADFQAERQAREKLAEKKELLQEQLEQLQREYSKLKASSQES | – | 2
